The supplement of paper PMC9170038

Tested on: MS2 coat protein
Test: apparent KD of MS2 coat protein; designed switch direction (-1 OFF switch, 1 ON switch): -1; higher = weaker reporter binding
Outline: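 An oligonucleotide input, 200 uM small-molecule ligand, or no input was present during titration of SNAP-549-labelled MS2 coat protein, which was doubled from 0.7 or 1.5 nM to 3 µM. Designed RNA switches had been transcribed on Illumina chips by stalled E. coli RNA polymerase. Apparent KD per design is the median over clusters of curves fitted to normalised cluster fluorescence.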

[1] = Eterna round: R95, input ligand: FMN 200 uM
[2] = Eterna round: R95, input ligand: microRNA oligo, concentration not stated
[3] = Eterna round: R95, input ligand: none
[4] = input ligand: microRNA oligo, concentration not stated

## AUGAGACAUGAGGAUCACCCAUGUGAGGAUAUGUAUGGAUGAAGGAAAGAAUGAGAGAACAGAAGGCACGAAGA [JR_Exclu1_Sub064] (puzzle: Exclusion 1)
[1]
  apparent KD of MS2 coat protein: 0.109 µM
[2]
  apparent KD of MS2 coat protein: 0.0989 µM
[3]
  apparent KD of MS2 coat protein: 0.138 µM

## AUGAGGUUAGGAUAUACAUGAGGAUCACCCAUGUUGAAAGGUUAGGUAGGCGGAGCUGGUAGAAGGAACGGAGC [JR_Exclu3_Sub056] (puzzle: Exclusion 3)
[2]
  apparent KD of MS2 coat protein: 0.0278 µM

## AUGCUCAUAGGAUAUAGAUUGAUUCACAUGAGGAUCACCCAUGUAAACUCUACUUUUUAACUAGAAGGAUGUUUUU [JR_E5_Sub018] (puzzle: Exclusion 5)
[2]
  apparent KD of MS2 coat protein: 0.0253 µM

## AUGGAGGCAGGAUAUGAGCGUACGAACAUGAGGAUCACCCAUGUGAGAUCUCCUGGUAGCUCAGAAGGGCUAUCUC [Eternabot (Original) Solution 5] (Eterna round: R97, puzzle: Exclusion 5)
Input ligand: FMN 200 uM
  apparent KD of MS2 coat protein: 0.253 µM
Input ligand: none
  apparent KD of MS2 coat protein: 0.0674 µM

## AUGGGUCCUCACGGAGCUACAUGAGGAUCACCCAUGUGGAUUGAGGAUAUCGACUGCCGACGGCUCGAGAAGGCAGUUUACUGU [Ex NG3 #95] (Eterna round: R96, puzzle: Exclusion NG 3)
Input ligand: FMN 200 uM
  apparent KD of MS2 coat protein: 0.0186 µM
[4]
  apparent KD of MS2 coat protein: 0.0143 µM
Input ligand: none
  apparent KD of MS2 coat protein: 0.0202 µM

## AUGGUUAGGUCAGGAUAUCGUUGAUUGAAUAGUAUGAUUUACAUGAGGAUCACCCAUGUUAUAUACGAGAAGGGACUUUAUCAU [JR_ExcNG2_Sub023] (Eterna round: R96, puzzle: Exclusion NG 2)
Input ligand: FMN 200 uM
  apparent KD of MS2 coat protein: 0.00977 µM
[4]
  apparent KD of MS2 coat protein: 0.00877 µM
Input ligand: none
  apparent KD of MS2 coat protein: 0.0186 µM

## AUGUUACAUGAGGAUCACCCAUGUGAGGAUAUGAGUCAGUCACGGUGACGUGGCUGACUCAGAAGGCACUAUGG [JL-ex1-4.39 salish99 mod] (Eterna round: R97, puzzle: Exclusion 1)
Input ligand: FMN 200 uM
  apparent KD of MS2 coat protein: 0.146 µM
Input ligand: none
  apparent KD of MS2 coat protein: 0.279 µM

## AUUAAGUGAGGAUAUACAAGAUCGCUUACCGCCAAAGGCGGACAUGAGGAUCACCCAUGUAGAAGGCACAAAUU [Vesoanor] (puzzle: Exclusion 2)
[2]
  apparent KD of MS2 coat protein: 0.0409 µM

## AUUAUAAAGGCAGGAUAUACAUGAGGAUCACCCAUGUAUAUCCGAUAAUAAUAUAAGUGCCUCAUGUAGAAGGGCCAUUAUAUA [Same State Mistake] (Eterna round: R96, puzzle: Exclusion NG 2)
Input ligand: FMN 200 uM
  apparent KD of MS2 coat protein: 0.0111 µM
[4]
  apparent KD of MS2 coat protein: 0.00876 µM
Input ligand: none
  apparent KD of MS2 coat protein: 0.0124 µM

## AUUAUAAUAUAGGAUAUCGAAAUAAUUAUUUAACGAGAAGGAUGAACAUGAGGAUCACCCAUGUGGUAUCAUGG [Mat - Exclusion 6 - JL Mod - D33] (puzzle: Exclusion 6)
[1]
  apparent KD of MS2 coat protein: 0.16 µM
[2]
  apparent KD of MS2 coat protein: 0.36 µM
[3]
  apparent KD of MS2 coat protein: 0.224 µM

## AUUAUAUAGAAAGGAUAUAGAAUAUUAUUUUAACAUGAGGAUCACCCAUGUAACCUUAUGUGUAGCUAGAAGGUUCAUUUAUUA [Title] (Eterna round: R96, puzzle: Exclusion NG 2)
[4]
  apparent KD of MS2 coat protein: 0.0525 µM

## AUUAUAUAGAAAGGAUAUUGAUUAUUAUUUUAACAUGAGGAUCACCCAUGUAGCCUUAUGUAUAACAAGAAGGUUCAUUUAUUA [Title] (Eterna round: R96, puzzle: Exclusion NG 2)
[4]
  apparent KD of MS2 coat protein: 0.0584 µM

## AUUGAUGUUGAGGAUAUGCAUAUAUUUAUAAAAGCAGAAGGCGAUACAUGAGGAUCACCCAUGUUCAUGGAAGU [JR_E6_Sub094] (puzzle: Exclusion 6)
[1]
  apparent KD of MS2 coat protein: 0.0467 µM
[2]
  apparent KD of MS2 coat protein: 0.035 µM
[3]
  apparent KD of MS2 coat protein: 0.0513 µM
